# Measured values as given in publication PMC11388503.
# T1: procalcitonin (UniProt P01258 26-141)
# T1 sequence: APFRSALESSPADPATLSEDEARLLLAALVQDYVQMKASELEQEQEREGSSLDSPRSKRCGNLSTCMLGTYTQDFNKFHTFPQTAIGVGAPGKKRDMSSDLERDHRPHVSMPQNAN
# B1: complementary aptamer (ssDNA)
# DNA: GGCGCCGTCAAGGCATTACAATTACGGATATGAACTCGAC
# modifications: 5'-SH (thiol)
# Molecular target: T1, procalcitonin
# Test: electrochemical IDE sensor
binder,measurement,value
B1,binding result,no binding
